Blank lines part the entries; values can stand above or below the binder they belong to.
B1: human LXRβ-LBD (liver X receptor beta ligand binding domain, amino acids 213-461 of Seq. Id. No. 1) (receptor)
chain: GEGEGVQLTAAQELMIQQLVAAQLQCNKRSFSDQPKVTPWPLGADPQSRDARQQRFAHFTELAIISVQEIVDFAKQVPGFLQLGREDQIALLKASTIEIMLLETARRYNHETECITFLKDFTYSKDDFHRAGLQVEFINPIFEFSRAMRRLGLDDAEYALLIAINIFSADRPNVQEPGRVEALQQPYVEALLSYTRIKRPQDQLRFPRMLMKLVSLRTLSSVHSEQVFALRLQDKKLPPLLSEIWDVHE
notes: The His tag was removed by thrombin before crystallization; Id; No. 1; Each crystal also held a small-molecule agonist; also called LXR-LBD; hLXRbeta213G-460E

Key:
[1] = target: the molecule itself; assay: X-ray co-crystal structure (Example 1); homodimer
Procedure: (§1) Protein used for crystallization of LXRβ-LBD together with 2-(4-{[2-(3-Chloro-phenyl)-5-methyl-oxazol-4-ylmethyl]-ethyl-amino }-phenyl)-1,1,1,3,3,3-hexafluoro-propan-2-ol has been purified as described above. The protein was incubated with ligand in a 12-fold molar excess for 2 hours at room temperature. A short co-activator peptide ([…]) (Seq. Id. No. 3) from SRC-1 was added in 12-fold molar excess and incubation continued overnight at 4 ° C. Prior to crystallization experiments the protein was centrifuged at 20000× g. The crystallization droplets were set up at 22 ° C. by mixing 1.5 μl of protein solution with 0.5 μl reservoir solution in vapour diffusion hanging drop experiments. Crystals appeared out of 0.2 M (NH₄)₂SO₄, 25% PEG 3350 after 1 day and grew to final size of 0.15 mm×0.15 mm×0.05 mm within 2 days.
(§2) Crystals were harvested with paraffin oil as cryoprotectant and then flash frozen in a 100 K N2 stream. Diffraction images were collected at a temperature of 100 K at the beamline X06SA of the Swiss Light Source and processed with the programs DENZO and […] yielding data to a resolution of 3.2 Å. Standard crystallographic programs from the CCP4 software suite were used to determine the structure by molecular replacement using an in-house LXRβ-LBD structure as search model. Refinement and model building cycles were performed with REFMAC and MOLOC, respectively (Table 1).

[2] = target: B1; assay: X-ray co-crystal structure (Example 3, space group P1)
Procedure: Protein used for crystallization of LXRβ-LBD together with - (R,S)-Benzenesulfonyl-(6chloro-2,3,4,9-tetrahydro-1H-carbazol-2-yl)-fluoro-acetic acid methyl ester has been purified as described above. The protein was incubated with ligand in a 15-fold molar excess for 2 hours at room temperature. A short co-activator peptide ([…]) (Seq. Id. No. 4) from SRC-1 was added in 3-fold molar excess and incubation continued overnight at 4 ° C. Prior to crystallization experiments the protein was concentrated to 12 mg/ml and centrifuged at 20000 ×g. The crystallization droplet was set up at room temperature by mixing 1.5 μl of protein solution with 0.5 μl reservoir solution in vapour diffusion hanging drop experiments. Crystals appeared out of 0.1 M Bis-Tris pH 5.5, 0.2 M (NH⁴⁾²SO₄, 25% PEG 3350 after 1 day and grew to final size of 0.2 mm×0.1 mm×0.05 mm within 2 days.
as §2, with “N₂” for “N2”, “2.3” for “3.2”, “LXR-LBD” for “LXRβ-LBD”, “Refinement and model building cycles were performed with REFMAC and MOLOC, respectively (Table 1).” left out

[3] = target: B1; assay: X-ray co-crystal structure (Example 1, space group P43)
Procedure: as §1, §2

Binder: B1
binding result [1]: binds

binding result [2]: binds
Binder: ERHKILHRLLQEG (13-residue peptide from SRC-1) [short co-activator peptide (ERHKILHRLLQEG) (Seq. Id. No. 4) from SRC-1]

binding result [3]: binds
Binder: KDHQLLRYLLDKD (13-residue peptide from SRC-1) [short co-activator peptide (KDHQLLRYLLDKD) (Seq. Id. No. 3) from SRC-1]

Reference: patent US20110060580A1 (published 2011)
